We go through nine sequences from paper PMC11914125.

The term Kd denotes the constant that tells how readily two partners part at equilibrium. Read a high Kd as a looser complex.

Data set [1] addresses DNA polymerase beta (full-length) (Homo sapiens) (UniProt P06746). In words: EMSA. The note with it: EMSA: 20 nM NCP, 20 mM HEPES pH 7.5, 100 mM NaCl, 1 mM EDTA, 1 mM DTT, 0.1 mg/ml BSA, 20 min, 4 °C, 5% native PAGE, 0.2x TBE. (A gel shift assay detects complexes by their altered migration in electrophoresis.)
Data set [2] has as its target Pol beta lyase domain (8 kDa) (rat) (UniProt P06766). In words: EMSA. The following applies: EMSA: 20 nM NCP, 20 mM HEPES pH 7.5, 100 mM NaCl, 1 mM EDTA, 1 mM DTT, 0.1 mg/ml BSA, 20 min, 4 °C, 5% native PAGE, 0.2x TBE.

On to “ATCGGATGTATATATCTGACACGTGCCTGGAGACTAGGGAGTAATCCCCTTGGCGGTTAAAACGCGGGGGACAGCGCGTACGTGCGTTTAAGCGGTGCTAGAGCTGTCTACGACCAATTGAGCGGCCTCGGCACCGGGATTCTCGAT / ATCGAGAATCCCGGTGCCGAGGCCGCTCAATTGGTCGTAGACAGCTCTAGCACCGCTTAAACGCACGTACGCGCTGTCCCCCGCGT / TTAACCGCCAAGGGGATTACTCCCTAGTCTCCAGGCACGTGTCAGATATATCCATCCGAT [Gap-NCP-1.5]”, for which, in data set [1] (5'-phosphate on strand 3), the Kd was found to be 149 nM. Take “ATCGGATGTATATATCTGACACGTGCCTGGAGACTAGGGAGTAATCCCCTTGGCGGTTAAAACGCGGGGGACAGCGCGTACGTGCGTTTAAGCGGTGCTAGAGCTGTCTACGACCAATTGAGCGGCCTCGGCACCGGGATTCTCGAT / ATCGAGAATCCCGGTGCCGAGGCCGCTCAATTGGTCGTAGACAGCTCTAGCACCGCTTAAACGCACGTACGCGCTGTCCCCCGCGTTTTAACCGCCAAGGGGATTACTCCCTAGTCT / CAGGCACGTGTCAGATATATACATCCGAT [Gap-NCP-4.5]”: the Kd turned out to be 125 nM in data set [2] (5'-phosphate on strand 3) and 98 nM in data set [1] (5'-phosphate on strand 3). As for “ATCGGATGTATATATCTGACACGTGCCTGGAGACTAGGGAGTAATCCCCTTGGCGGTTAAAACGCGGGGGACAGCGCGTACGTGCGTTTAAGCGGTGCTAGAGCTGTCTACGACCAATTGAGCGGCCTCGGCACCGGGATTCTCGAT / ATCGAGAATCCCGGTGCCGAGGCCGCTCAATTGGTCGTAGACAGCTCTAGCACCGCTTAAACGCACGTACGCGCTGTCCCCCGCGTTTTAACCGCCAAGGGGATTACTCCCTAGT / TCCAGGCACGTGTCAGATATATCCATCCGAT [Gap-NCP-4.5+2]”, the equilibrium dissociation constant (Kd) in data set [1] (5'-phosphate on strand 3) was found to be 137 nM. This counts as sub-micromolar. For “ATCGGATGTATATATCTGACACGTGCCTGGAGACTAGGGAGTAATCCCCTTGGCGGTTAAAACGCGGGGGACAGCGCGTACGTGCGTTTAAGCGGTGCTAGAGCTGTCTACGACCAATTGAGCGGCCTCGGCACCGGGATTCTCGAT / ATCGAGAATCCCGGTGCCGAGGCCGCTCAATTGGTCGTAGACAGCTCTAGCACCGCTTAAACGCACGTACGCGCTGTCCCCCGCGTTTTAACCGCCAAGGGGATTACTCCCTAGTCTCCAGGCACGT / TCAGATATATCCATCCGAT [Gap-NCP-5.5]”, the Kd in data set [1] (5'-phosphate on strand 3) amounted to 51 nM. Same read-out and setting: to “ATCGGATGTATATATCTGACACGTGCCTGGAGACTAGGGAGTAATCCCCTTGGCGGTTAAAACGCGGGGGACAGCGCGTACGTGCGTTTAAGCGGTGCTAGAGCTGTCTACGACCAATTGAGCGGCCTCGGCACCGGGATTCTCGAT / ATCGAGAATCCCGGTGCCGAGGCCGCTCAATTGGTCGTAGACAGCTCTAGCACCGCTTAAACGCACGTACGCGCTGTCCCCCGCGTTTTAACCGCCAAGGGGATTACTCCCTA / TCTCCAGGCACGTGTCAGATATATCCATCCGAT [Gap-NCP-4.5+4]” belongs 94 nM; to “ATCGGATGTATATATCTGACACGTGCCTGGAGACTAGGGAGTAATCCCCTTGGCGGTTAAAACGCGGGGGACAGCGCGTACGTGCGTTTAAGCGGTGCTAGAGCTGTCTACGACCAATTGAGCGGCCTCGGCACCGGGATTCTCGAT / ATCGAGAATCCCGGTGCCGAGGCCGCTCAATTGGTCGTAGACAGCTCTAGCACCGCTTAAACGCACGTACGCGCTGTCCCCCGCGTTTTAACCGCCAAGGGGATTA / TCCCTAGTCTCCAGGCACGTGTCAGATATATCCATCCGAT [Gap-NCP-3.5]”, 141 nM. On the same count and under the same terms, with “ATCGGATGTATATATCTGACACGTGCCTGGAGACTAGGGAGTAATCCCCTTGGCGGTTAAAACGCGGGGGACAGCGCGTACGTGCGTTTAAGCGGTGCTAGAGCTGTCTACGACCAATTGAGCGGCCTCGGCACCGGGATTCTCGAT / ATCGAGAATCCCGGTGCCGAGGCCGCTCAATTGGTCGTAGACAGCTCTAGCACCGCTTAAACGCACGTACGCGCTGTCCCCCGCGTTTTAACCGC / AAGGGGATTACTCCCTAGTCTCCAGGCACGTGTCAGATATATCCATCCGAT [Gap-NCP-2.5]” the figure was 118 nM.

For “ATCGGATGTATATATCTGACACGTGCCTGGAGACTAGGGAGTAATCCCCTTGGCGGTTAAAACGCGGGGGACAGCGCGTACGTGCGTTTAAGCGGTGCTAGAGCTGTCTACGACCAATTGAGCGGCCTCGGCACCGGGATTCTCGAT (double strand) [ND-NCP]”, the dissociation constant Kd in data set [2] stood at 451 nM; in data set [1] it was 217 nM.

In data set [1] (5'-phosphate on strand 3), “ATCGGATGTATATATCTGACACGTGCCTGGAGACTAGGGAGTAATCCCCTTGGCGGTTAAAACGCGGGGGACAGCGCGTACGTGCGTTTAAGCGGTGCTAGAGCTGTCTACGACCAATTGAGCGGCCTCGGCACCGGGATTCTCGAT / ATCGAGAATCCCGGTGCCGAGGCCGCTCAATTGGTCGTAGACAGCTCTAGCACCGCTTAAACGCACGTACGCGCTGTCCCCCGCGTTTTAACCGCCAAGGGGATTACTCCCTAG / CTCCAGGCACGTGTCAGATATATCCATCCGAT [Gap-NCP-4.5+3]” registered an equilibrium dissociation constant (Kd) of 115 nM.
